Results on one protein are retold here after FireProtDB (doi:10.1021/bi000849s).

For this data set the following is noted: Homo sapiens, Thermal, DSC, reversible: yes, whole UniProt chain shown.

B1: Lysozyme C wild type, P61626 (protein)
chain: MKALIVLGLVLLSVTVQGKVFERCELARTLKRLGMDGYRGISLANWMCLAKWESGYNTRATNYNAGDRSTDYGIFQINSRYWCNDGKTPGAVNACHLSCSALLQDNIADAVACAKRVVRDPQGIRAWVAWRNRCQNRDVRQYVQGCGV
In the case of B1, the Tm (as a rule, the temperature at the midpoint of the melting transition) (pH 2.2, glycine hydrochloride 0.05 M) stood at 57.5 °C; the Tm (pH 2.3, glycine hydrochloride 0.05 M, KCl 0.2 M) came out at 56.2 °C; the Tm (pH 4, sodium acetate 0.02 M) was 80.1 °C; the Tm (pH 4.5, sodium acetate 0.02 M, KCl 0.2 M) came out at 77.7 °C.
